Laboratory results: patent US12102696B2, “Radiolabeling and formulation for scale up of 64Cu-DOTATATE” (Curium US LLC, priority 2020, dated 2024)
Marks after values point to notes of the source that are not given here.

Columns and labels:
[1] = molecular target: somatostatin receptors, subtype 2 receptors (SSTR2) (Homo sapiens, UniProt P30874); conditions: cited from earlier work
[2] = Stability of 64Cu-DOTATATE in final dose matrix (NaOAsc, EtOH, GA) by HPLC; assay type: physicochemical
Procedure: (§1) HPLC was performed using an Agilent 1200 series system equipped with a variable wavelength UV-Vis detector followed in-line with a sodium iodide detector (Bioscan B-FC-200P). A Phenomenex Luna C18 column (150 mm×.4.6 mm, 5 μm) was used. The mobile phase was made of Solvent A and Solvent B. Solvent A was a 0.1% trifluoroacetic acid (TFA) in HRW, and solvent B was 0.1% TFA acid in acetonitrile (ACN). The gradient was (i) 15-40% Solvent B in A for 10 min, 40% Solvent B in A from 10 to 15 min, 15% Solvent B in A from 15-16 min, and 15% Solvent B in Solvent A from 16-19 min. The flow rate was 1.2 mL/min, and UV detection was monitored at 220 nm.
The effect of ethanol (EtOH) and gentisic acid (GA) content in the final dose matrix on chemical stability of ^64Cu-dotatate was assessed. In these experiments, 500 mCi reactions were performed using the general procedure outlined in Example 2 and the ^64Cu-DOTATATE product was eluted from the Sep-Pak with 2 mL of 50% EtOH (aq) into 5 mL of 50 mg/mL NaOAsc buffer to serve as the purified ^64Cu-DOTATATE stock solution. From the ^64Cu-DOTATATE stock, 1 mL aliquots were transferred to vials containing the following solutions:
In those samples, the decrease in ^64Cu-DOTATATE correlated with an increase in free ^64Cu and two unknown radioimpurities at tR=6.6 min and 7.1 min.

[3] = Stability (RCP by radio-HPLC) of purified scale-up 64Cu-DOTATATE reactions; assay type: physicochemical; conditions: for RCP: Sep-Pak purified material
Procedure: as §1
Radiolabeling reactions followed the general procedure described herein. A solution of ^64Cu in 0.05 M HCl was mixed with a solution of DOTATATE in sodium acetate/gentisic acid buffer. The reaction mixture was heated to 30° C. for 5 min and then purified via a C-18 solid phase extraction cartridge. The purified ^64Cu-DOTATATE was collected in 2 mL of 50% EtOH and subsequently diluted with an ascorbic acid solution. The final product was assayed for activity and the radiochemical purity (RCP) was evaluated via radio-HPLC analysis. Characterization was performed against non-radioactive DOTATATE (tR=6.3 min) and Cu-DOTATATE (tR=7.3 min) standards.
Representative reactions for 100 mCi-7000 mCi batch sizes and results are outlined in Table 9. […] The remainder of the activity eluted (tR=6.2-7.2 min) are attributed to degradation products due to radiolysis.

[4] = reaction 120.6 mCi 64Cu at TOS, 200 μg DOTATATE
[5] = reaction 481 mCi 64Cu at TOS, 1000 μg DOTATATE, average of two samples
[6] = reaction 1190 mCi 64Cu at TOS, 2000 μg DOTATATE, average of two samples
[7] = reaction 2402 mCi 64Cu at TOS, 4000 μg DOTATATE, average of two samples
[8] = reaction 7297 mCi 64Cu at TOS, 4378 μg DOTATATE

Chain of somatostatin receptors, subtype 2 receptors (SSTR2) (P30874 whole entry): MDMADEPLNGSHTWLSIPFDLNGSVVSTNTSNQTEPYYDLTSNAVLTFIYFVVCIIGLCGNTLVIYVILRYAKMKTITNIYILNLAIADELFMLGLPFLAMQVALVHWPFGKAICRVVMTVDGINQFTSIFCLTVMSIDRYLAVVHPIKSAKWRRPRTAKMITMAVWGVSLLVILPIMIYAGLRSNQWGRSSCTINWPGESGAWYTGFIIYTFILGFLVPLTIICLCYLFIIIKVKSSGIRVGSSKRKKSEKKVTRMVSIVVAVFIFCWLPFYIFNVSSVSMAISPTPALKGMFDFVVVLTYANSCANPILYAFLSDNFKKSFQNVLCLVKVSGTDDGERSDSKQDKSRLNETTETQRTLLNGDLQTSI

## C[C@@H](O)[C@H](NC(=O)[C@@H]1CSSC[C@H](NC(=O)[C@@H](Cc2ccccc2)NC(=O)CN2CCN3CCN(CC(=O)O)CCN(CC2)CC(=O)[O][64Cu][O]C(=O)C3)C(=O)N[C@@H](Cc2ccc(O)cc2)C(=O)N[C@H](Cc2c[nH]c3ccccc23)C(=O)N[C@@H](CCCCN)C(=O)N[C@@H]([C@@H](C)O)C(=O)N1)C(=O)O [^64Cu-DOTATATE, copper (Cu64)-N-[(4,7,10-Tricarboxymethyl-1,4,7,10-tetraazacyclododec-1-yl)acetyl]-Dphenylalanyl-L-cysteinyl-L-tyrosyl-D-tryptophanyl-L-lysyl-L-threoninyl-L-cysteinyl-L-threonine-cyclic (2-7) disulfide]
[1]
  affinity for somatostatin receptor subtypes: highest affinity for subtype 2 receptors (SSTR2)
[2]; sodium ascorbate 45-122 mg/mL, ethanol 1.6%-5.2%, activity concentration 3.6-16 mCi/mL at time of preparation
  purity, chemically stable for two days: greater than 95%
[2]; sodium ascorbate up to 98 mg/mL, ethanol up to 9.7%, activity concentration approximately 18 mCi/mL at time of preparation
  purity, remained stable: greater than 90%
[3]; purified reaction solutions
  period over which stable (HPLC): at least 47 h
[3]; [4]
  RCP Day 1 (+24 hr): 97.7%^
  RCP Day 2 (+47 hr): 95.0%^
  RCP: 98.9%^
[3]; [5]
  RCP: 99.4%^c
  RCP Day 1 (+24 hr): 99.7%^c
  RCP Day 2 (+47 hr): 99.4%^c
[3]; [6]
  RCP: 99.6%^c
  RCP Day 1 (+24 hr): 99.4%^c
  RCP Day 2 (+47 hr): 99.7%^c
[3]; [7]
  RCP: 99.2%^c
  RCP Day 1 (+24 hr): 99.4%^c
  RCP Day 2 (+47 hr): 99.3%^c
[3]; [8]
  RCP Day 2 (+47 hr): 95%
  RCP: 95%
